# In patent publication US20130280271A1 (INSTITUTE FOR CANCER RESEARCH, published 2013):
# Target: the molecule itself
# Experiment: static light scattering; self-association
# Method: Light scattering analysis. Measurements were made with a Protein Solutions DynaPro Temperature Controlled Microsampler. Samples were adjusted to the desired concentration and particulates removed by filtration through a 0.2μ microcon device, and subsequent clearing by brief centrifugation at 14,000×g and 4° C. The protein concentration was then determined directly using absorbance at 280 nm and a calculated molar extinction coefficient, taking the average of 3 readings. All samples were analyzed under conditions of 10° C. in a buffer of 25 mM BisTris pH 6.1, 500 mM NaCl, 1 mM DTT, 0.1 mM EDTA, 5% glycerol. The molecular mass (MW I) was calculated from the static light scattering measurements (at least 300 acquisitions per protein sample) using the DynaPro software.
protein,measurement,value
"ASV IN(1-207) (enzyme, also called IN fragment that lacks the CTD) PLREAKDLHTALHIGPRALSKACNISMQQAREVVQTCPHCNSAPALEAGVNPRGLGPLQIWQTDFTLEPRMAPRSWLAVTVDTASSAIVVTQHGRVTSVAAQHHWATAIAVLGRPKAIKTDNGSCFTSKSTREWLARWGIAHTTGIPGNSQGQAMVERANRLLKDKIRVLAEGDGFMKRIPTSKQGELLAKAMYALNHFERGENTKT",binding result,no binding (tested: 1.5 mg/ml)
